Columns and labels:
[1] = biological target: T1, Msm encapsulin (MSMEG_5830) (M. smegmatis (endogenous in Msm groELΔC), UniProt A0R4H0 1-265); assay: negative stain EM single-particle reconstruction; partially fractionated late stationary phase Msm lysate (anion exchange or sucrose cushion, >100 kDa cut-off), 2% uranyl acetate, Relion 3.1; symmetry imposed from 2D classes; C3 symmetry for encapsulin with cargo; conditions: partners not purified
T1 construct: encapsulin of Mycobacterium smegmatis, locus MSMEG_5830; Reconstructed with icosahedral symmetry; also called complex 001; encapsulin nanocompartment; source: endogenous, M. smegmatis groELΔC late stationary phase lysate, partially fractionated (anion exchange, >100 kDa cut-off; gel filtration); also solubilised membrane fraction
T1 sequence (looked up): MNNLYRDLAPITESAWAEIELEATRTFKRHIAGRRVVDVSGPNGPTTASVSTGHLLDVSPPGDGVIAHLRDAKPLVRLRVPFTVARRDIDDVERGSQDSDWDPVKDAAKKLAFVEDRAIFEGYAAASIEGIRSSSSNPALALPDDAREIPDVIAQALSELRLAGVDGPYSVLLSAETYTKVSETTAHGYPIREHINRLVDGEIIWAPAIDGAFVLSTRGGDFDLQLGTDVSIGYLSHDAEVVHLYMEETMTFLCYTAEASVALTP

[2] = biological target: the molecule itself; assay: as above

B1: Msm dye-decolourising type peroxidase (MSMEG_5829) (enzyme, M. smegmatis (endogenous in Msm groELΔC), UniProt A0R4G9 1-343, looked up)
chain: MPAPQPQPVLAPLTPAAVFLVATIDEGQEATVYDALPDISGLVRAIGFRDPAKRLSAITSIGSDAWDRLFSGPRPAELHPFREIDGGRHHAPATPGDLLFHLRAESMDVCFELATKLVEAMSGAITIVDETHGFRFFDNRDLMGFVDGTENPDGNLAVVATQIGDEDPDFAGGCYVHVQKYLHDMASWNSLSVEEQERVIGRTKLDDIELDDDVKPANSHVALNVIEDEDGNELKIIRHNMPFGEIGKGEFGTYYIGYSRTPSVTERMLDNMFIGDPPGNTDRILDFSTAITGGLFFTPTVDFLDDPPPLPSEDDRAEPASAPSADPVHTDGSLGIGSLKGTR
notes: dye-decolourising type peroxidase of Mycobacterium smegmatis, locus MSMEG_5829; Interpreted as a D3 hexamer from the cargo density in the C3 map; also called DyP; DyP type peroxidase; source: endogenous, M. smegmatis groELΔC late stationary phase lysate, partially fractionated, enclosed in encapsulin; also solubilised membrane fraction
stoichiometry N [1]: 10 encapsulin subunits per DyP subunit
stoichiometry N [2]: 6 subunits

Reference: PMC8244302, “Shotgun EM of mycobacterial protein complexes during stationary phase stress” (Current Research in Structural Biology, 2020)
